The values that follow come from the MegaScale stability set (Tsuboyama et al. 2023).

B1: r4_43_TrROS_Hall (parent)
chain: DLVTIKVPLENLEEIKKAAEKAGFKIVSISYDKENKEVTIVIEKKK

The variants in the data set derive from B1. Description: folding stability dG (cDNA display proteolysis); higher = more stable. The settings on record: PBS, room temperature.
As for DLVTIKVPLENLEEIKKAAEKAGFKIVSISYDKEAKEVTIVIEKKK, the “folding stability dG” value was found to be 3.24 kcal/mol.
The result for DLVTIKVPLENLEEIKKAAEKAGFKEVSISYDKENKEVTIVIEKKK reads 1.75 kcal/mol.
Turning to DLVTIKVPLENLEEIKKAAEKAGFKLVSISYDKENKEVTIVIEKKK, the “folding stability dG” value came to 3.59 kcal/mol.
Consider DLVTIKVPLENLEEIKKAAEKAGFKVVSISYDKENKEVTIVIEKKK, for which the “folding stability dG” value amounted to 3.41 kcal/mol.
For the variant DLVTIKVPLENLEEIKKAAEKAGFKIVSISEDKENKEVTIVIEKKK, the “folding stability dG” value turned out to be 3.29 kcal/mol.
On to DLVTIKVPLENLEEIKKAAEKAGFKIVSISLDKENKEVTIVIEKKK, for which the “folding stability dG” value stood at 3.12 kcal/mol.
Turning to DLVTIKVPLENLEEIKKAAEKAGFKIVSISYDKENKEVTIVIEVKK, the “folding stability dG” value amounted to 3.92 kcal/mol.
As for DLVTIKVPLENLEEIKKAAEKAGFKIVSISYDKENKEVTWVIEKKK, the figure is 1.82 kcal/mol; as for DLVTIKVPLENLEEIDKAAEKAGFKIVSISYDKENKEVTIVIEKKK, 2.66 kcal/mol; as for DLVTIKVPLENLEEIMKAAEKAGFKIVSISYDKENKEVTIVIEKKK, 3.58 kcal/mol.
With DLVTIKVPLENLEEINKAAEKAGFKIVSISYDKENKEVTIVIEKKK, the “folding stability dG” value was determined as 3.35 kcal/mol.
On to DLVTIKVPLENLEEIWKAAEKAGFKIVSISYDKENKEVTIVIEKKK, for which the “folding stability dG” value amounted to 3.8 kcal/mol.
The result for DLVTIKVPLENLEEISKAAEKAGFKIVSISYDKENKEVTIVIEKKK reads 3.58 kcal/mol; that for DLVTIKVPLENLEEIKKAAEKAGFKIVSISYDKQNKEVTIVIEKKK, 3.89 kcal/mol; that for DLVTIKVPLENLEEIKKAAEKAGFKIVSISYDKRNKEVTIVIEKKK, 3.84 kcal/mol.
On to DLVTIKVPLENLEEIKKAAEKAGFKIVSISYDKVNKEVTIVIEKKK, for which the “folding stability dG” value was found to be 3.72 kcal/mol.
As for DLVTIKVPLENLEEIKKAAEKAGFKIVSISYDKENKEVTIVIEKAK, the “folding stability dG” value was found to be 3.92 kcal/mol.
For DLVTIKVPLENLEEIKKAAEKAGFKIVSISYDKENKEVTIVIEKSK, the “folding stability dG” value came to 3.72 kcal/mol.
On to DLVTIKVPLENLEEIKKAAEKAGFKIVSKSYDKENKEVTIVIEKKK, for which the “folding stability dG” value turned out to be 2.44 kcal/mol.
The result for DLVTIKVPLENLEEIKKAAEKAGFKIVSIYYDKENKEVTIVIEKKK reads 3.83 kcal/mol.
As for DLVTIKVPLENLEEIKKAAEKAGFKIVSIGYDKENKEVTIVIEKKK, the figure is 3.22 kcal/mol; as for DLVTIKVPLENLEEIKKAAEKAGFKIVSISYNKENKEVTIVIEKKK, 4.06 kcal/mol.
Take DLVTIKVPLENLEEIKKAAEKAGFKIVSISYPKENKEVTIVIEKKK: the “folding stability dG” value was 2.77 kcal/mol.
The result for DLVTIKVPLENLEEIKKAAEKAFFKIVSISYDKENKEVTIVIEKKK reads 3.61 kcal/mol; that for DLVTIKVPLENLEEIKKAAEKAIFKIVSISYDKENKEVTIVIEKKK, 2.98 kcal/mol.
As for DLVTIKVPLENLEEIKKAAEKATFKIVSISYDKENKEVTIVIEKKK, the figure is 3.23 kcal/mol; as for DLVTIKVPLENLEEIKKAAEKAYFKIVSISYDKENKEVTIVIEKKK, 3.44 kcal/mol; as for DLVTIKVPLENLEEQKKAAEKAGFKIVSISYDKENKEVTIVIEKKK, 3.58 kcal/mol.
As for DLVTIKVPLYNLEEIKKAAEKAGFKIVSISYDKENKEVTIVIEKKK, the figure is 3.77 kcal/mol; as for DLVTIKVPLENLEEIKKAAEKAGEKIVSISYDKENKEVTIVIEKKK, 2.85 kcal/mol; as for DLVTIKVPLENLEEIKKAAEKAGVKIVSISYDKENKEVTIVIEKKK, 2.74 kcal/mol.
As to DLVTIKVPLENLEEIKKACEKAGFKIVSISYDKENKEVTIVIEKKK, the “folding stability dG” value is 3.44 kcal/mol.
The result for DLVTIKVPLENLEEIKKAIEKAGFKIVSISYDKENKEVTIVIEKKK reads 3.61 kcal/mol; that for DLVTIKVPLENLEEIKKAEEKAGFKIVSISYDKENKEVTIVIEKKK, 2.89 kcal/mol.
Consider DLVTIKVPLENLEEIKKAFEKAGFKIVSISYDKENKEVTIVIEKKK, for which the “folding stability dG” value amounted to 3.52 kcal/mol.
Consider DLVTIKVPLENLEEIKKANEKAGFKIVSISYDKENKEVTIVIEKKK, for which the “folding stability dG” value came to 3.55 kcal/mol.
Take DLVTIKVPLENLEEIKKAAEKAGFEIVSISYDKENKEVTIVIEKKK: the “folding stability dG” value turned out to be 3.04 kcal/mol.
As to DLVTIKVPLENLEEIKKAAEKAGFQIVSISYDKENKEVTIVIEKKK, the “folding stability dG” value came out at 3.29 kcal/mol.
The result for DLVTIKVPLENLEEIKKAAEKAGFCIVSISYDKENKEVTIVIEKKK reads 3.06 kcal/mol; that for DLVTIKVPLENLEEIKKAAEKAGFIIVSISYDKENKEVTIVIEKKK, 3.56 kcal/mol.
In the case of DLVTIKVPLENLEEIKKAAEKAGFKIVSISYDYENKEVTIVIEKKK, the “folding stability dG” value was 3.42 kcal/mol.
As for DLVTIKVPLENLEEIKKAAEKAGFKIVSISYDRENKEVTIVIEKKK, the figure is 3.93 kcal/mol; as for DLVTIKVPLENLEEIKKAAEKAGFKIVSISYDKENKEVTIVIEKKL, 3.65 kcal/mol; as for DLVTIKVPLENLEEIKKAAEKAGFKIVSISYDKENKEVTIVIEKKW, 4.4 kcal/mol.
The result for DLVTIKVPLENLEEIKKAAEKAGFKIVSISYDKENKEVTIVIEKKP reads 3.71 kcal/mol.
The result for DLVTIKVPLENLEEIKKAAEKAGFKIVSISYDKENKEVCIVIEKKK reads 3.2 kcal/mol; that for DLVTIKVPLENLEEIKKAAEKAGFKIVQISYDKENKEVTIVIEKKK, 3.48 kcal/mol.
DLVTIKVPLENLEEIKKAAEKAGFKIVEISYDKENKEVTIVIEKKK: the “folding stability dG” value turned out to be 3.18 kcal/mol.
As for DLVTIKVPLENLFEIKKAAEKAGFKIVSISYDKENKEVTIVIEKKK, the figure is 3.99 kcal/mol.
Consider DLVTIKVPLENLLEIKKAAEKAGFKIVSISYDKENKEVTIVIEKKK, for which the “folding stability dG” value turned out to be 3.9 kcal/mol.
As to DLVTIKVPLENLTEIKKAAEKAGFKIVSISYDKENKEVTIVIEKKK, the “folding stability dG” value was 3.46 kcal/mol.
As for DLVTIKVPLENLGEIKKAAEKAGFKIVSISYDKENKEVTIVIEKKK, the figure is 3.63 kcal/mol; as for DLVTIKVPLENLPEIKKAAEKAGFKIVSISYDKENKEVTIVIEKKK, 3.52 kcal/mol; as for DLVTIKFPLENLEEIKKAAEKAGFKIVSISYDKENKEVTIVIEKKK, 3.46 kcal/mol.
The result for DLVTIKMPLENLEEIKKAAEKAGFKIVSISYDKENKEVTIVIEKKK reads 3.63 kcal/mol.
The result for DLVTIKNPLENLEEIKKAAEKAGFKIVSISYDKENKEVTIVIEKKK reads 2.53 kcal/mol.
